B1: HDV Ribozyme (parent)
chain: GGCCGGCAUGGUCCCAGCCUCCUCGCUGGCGCCGGCUGGGCAACAUUCCGAGGGGACCGUCCCCUCGGUAAUGGCGAAUGGGACCCA

Variants of: B1
Assay: self-cleavage, relative activity (ratio to wild type); higher = more cleavage; co-transcriptional

Variant	self-cleavage
CGCCGGCAUGGUCCCAGCCUCCUCGCUGGCGCCGGCUGGGCAACAUUCCGAGGGGACCGUCCCCUCGGCAAUGGCGAAUGGGACCCA	0.158
CGCCGGCAUGGUCCCAGCCUCCUCGCUGGCGCCGGCUGGGCAACAUUCCGAGGGGACCGACCCCUCGGUAAUGGCGAAUGGGACCCA	0.237
CGCCGGCAUGGUCCCAGCCUCCGCGCUGGCGCCGGCUGGGCAACAUUCCGAGGGGACCGUCCCCUCGGUAAUGGCGAAUGGGACCCA	0.227
CGCCGGCAUGGUCCCAGCCUCCCCGCUGGCGCCGGCUGGGCAACAUUCCGAGGGGACCGUCCCCUCGGUAAUGGCGAAUGGGACCCA	0.0831
CGCCGGCAUGGUCCCAGCCUCCUCGCUGGCGCCGGCUGGGCAACAUGCCGAGGGGACCGUCCCCUCGGUAAUGGCGAAUGGGACCCA	0.128
CGCCGGCAUGGUCCCAGCCUCCUCGCUGGCGCCGGCUGGGCAACAUUCCGAGGGGACCGUCCCCUCGGUAAUGGCGAAGGGGACCCA	0.0723
UGCCGGCAUGGUCCCAGCCUCCUCGCUGGCGCCGGCUGGGCAACAUUCCGAGGGGCCCGUCCCCUCGGUAAUGGCGAAUGGGACCCA	0.494
CGCCGGCAUGGUCCCAGCCUCCUCGCUGGCGCCGGCUGGGCAACAUUCCGAGGGGACCGUCCCCUCGGUAAUGGCGAAUGGAACCCA	0.0475
UGCCGGCAUGGUCCCAGCCUCCUCGCUGGCGCCGGCUGGGCAACAUUCCGAGGGGACCGUCCCCUCGGUAAUGGCGAAUGGGACCCU	0.507
CGCCGGCAUGGUCCCAGCCUCCUCGCUGGCGCCGGCUGGGCAACAUUCCGAGGGGACCGUCCCCUCGGUAAUGGCGAAUGUGACCCA	0.192
CGCCGGCAUGGUCCCAGCCUCCUCGCUGGCGCCGGCUGGGCAACAUUCCGAGGGGACCGUCCCCUCGGUAAUGGCGAAUGCGACCCA	0.119
CGCCGGCAUGGUCCCAGCCCCCUCGCUGGCGCCGGCUGGGCAACAUUCCGAGGGGACCGUCCCCUCGGUAAUGGCGAAUGGGACCCA	0.0723
CGCCGGCAUGGUCCCAGCCGCCUCGCUGGCGCCGGCUGGGCAACAUUCCGAGGGGACCGUCCCCUCGGUAAUGGCGAAUGGGACCCA	0
CGCCGGCAUGGUCCCAGCCUCCUCGCCGGCGCCGGCUGGGCAACAUUCCGAGGGGACCGUCCCCUCGGUAAUGGCGAAUGGGACCCA	0
UGCCGGCAUGGUCCCAGCCUCGUCGCUGGCGCCGGCUGGGCAACAUUCCGAGGGGACCGUCCCCUCGGUAAUGGCGAAUGGGACCCA	0.214
CGCCGGCAUGGUCCCAGCCUCCUCGCUGGCGCCGGCUGGGCAACAAUCCGAGGGGACCGUCCCCUCGGUAAUGGCGAAUGGGACCCA	0.138

Variant	self-cleavage
CGCCGGCAUGGUCCCAGCCUCCUCGCUGGCGCCGGCUGGGCAACAGUCCGAGGGGACCGUCCCCUCGGUAAUGGCGAAUGGGACCCA	0.119
UGCCGGCAUGGUCCCAGCCUCCUCGCUGGCGCCGGCUGGGCAACAUUCCGAGGGGACCGUCCCCUCGGUAGUGGCGAAUGGGACCCA	0.429
UGCCGGCAUGGUCCCAGCCUCCUCGCUGGCGCCGGCUGGGCAACAUUCCGAGGGGACCGUCCCCUCGGUAUUGGCGAAUGGGACCCA	0.424
UGCCGGCAUGGUGCCAGCCUCCUCGCUGGCGCCGGCUGGGCAACAUUCCGAGGGGACCGUCCCCUCGGUAAUGGCGAAUGGGACCCA	0.369
CGCCGGCAUGGGCCCAGCCUCCUCGCUGGCGCCGGCUGGGCAACAUUCCGAGGGGACCGUCCCCUCGGUAAUGGCGAAUGGGACCCA	0.145
CGCCGGCAUGGACCCAGCCUCCUCGCUGGCGCCGGCUGGGCAACAUUCCGAGGGGACCGUCCCCUCGGUAAUGGCGAAUGGGACCCA	0
CGCCGGCAUGGUCCCAGCCUCCUCGCUGGCGCCGGCUGGGCAACAUUCCGAGGGGACCGUCCCCCCGGUAAUGGCGAAUGGGACCCA	0.128
UGCCGGCAUGGUCCCAGCCUCCUCGCUGGCGCCGGCUGGGCAACAUUCCGCGGGGACCGUCCCCUCGGUAAUGGCGAAUGGGACCCA	0.231
UGCCGGCAUGGUCCCAGCCUCCUCGCUGGCGCCGGCUGGGCAACAUUCCGGGGGGACCGUCCCCUCGGUAAUGGCGAAUGGGACCCA	0.514
UGCCGGCAUGGUCCCAGCCUCCUCGCUGGCGCCGGCUGGGCAACAUUCCGAGGGGACCGUCCCCUCGGUUAUGGCGAAUGGGACCCA	0.381
UGCCGGGAUGGUCCCAGCCUCCUCGCUGGCGCCGGCUGGGCAACAUUCCGAGGGGACCGUCCCCUCGGUAAUGGCGAAUGGGACCCA	0.332
UGCCGGAAUGGUCCCAGCCUCCUCGCUGGCGCCGGCUGGGCAACAUUCCGAGGGGACCGUCCCCUCGGUAAUGGCGAAUGGGACCCA	0.169
UGCCGGCAUGGUCACAGCCUCCUCGCUGGCGCCGGCUGGGCAACAUUCCGAGGGGACCGUCCCCUCGGUAAUGGCGAAUGGGACCCA	0.222
UGCCGGCAUGGUCGCAGCCUCCUCGCUGGCGCCGGCUGGGCAACAUUCCGAGGGGACCGUCCCCUCGGUAAUGGCGAAUGGGACCCA	0.397
UGCCGGCAUGGUCCCAGCCUCCUCGCUGGCGCCGGCUGGGCAACAUUCCGAGGGGACCGUCCCCUCGGUAAUGGCGAGUGGGACCCA	0.346
UGCCGGCAUGGUCCCAGCCUCCUCGCUGGCGCCGGCUGGGCUACAUUCCGAGGGGACCGUCCCCUCGGUAAUGGCGAAUGGGACCCA	0.332
